How the values were obtained:
[1] = target: cynomolgus monkey PD-L1 on 293F cells (W315-293F.cynoPro1.2A2) (cynomolgus monkey) (UniProt G7PSE7); test: FACS affinity on cynomolgus PD-L1 cells, quantitative beads; design: Bmax: unit not given here
[2] = target: cynomolgus monkey PD-L1 on 293F cells (W315-293F.cynoPro1.2A2) (cynomolgus monkey) (UniProt G7PSE7); test: FACS on cynomolgus PD-L1 293F cells
[3] = target: mouse PD-L1 on 293F cells (W315-293F.mPro1.C1) (mouse) (UniProt Q9EP73); test: FACS competition: antibody titrated against 5 ug/mL mouse PD-1 ECD mFc on mouse PD-L1 293F cells
Chain of mouse PD-L1 on 293F cells (W315-293F.mPro1.C1) (mouse) (Q9EP73 19-290): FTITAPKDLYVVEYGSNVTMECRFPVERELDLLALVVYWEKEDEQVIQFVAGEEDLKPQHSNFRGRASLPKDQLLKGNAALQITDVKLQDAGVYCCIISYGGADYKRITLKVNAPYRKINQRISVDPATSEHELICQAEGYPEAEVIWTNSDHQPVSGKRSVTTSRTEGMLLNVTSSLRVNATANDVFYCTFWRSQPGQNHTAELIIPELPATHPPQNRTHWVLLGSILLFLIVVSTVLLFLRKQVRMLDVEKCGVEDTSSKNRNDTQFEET

[4] = target: human PD-L1 on CHO-K1 cells (W315-CHO-K1.hPro1.C11) (human) (UniProt Q9NZQ7); test: FACS affinity on human PD-L1 cells, quantitative beads
Chain of human PD-L1 on CHO-K1 cells (W315-CHO-K1.hPro1.C11) (human) (Q9NZQ7 19-290): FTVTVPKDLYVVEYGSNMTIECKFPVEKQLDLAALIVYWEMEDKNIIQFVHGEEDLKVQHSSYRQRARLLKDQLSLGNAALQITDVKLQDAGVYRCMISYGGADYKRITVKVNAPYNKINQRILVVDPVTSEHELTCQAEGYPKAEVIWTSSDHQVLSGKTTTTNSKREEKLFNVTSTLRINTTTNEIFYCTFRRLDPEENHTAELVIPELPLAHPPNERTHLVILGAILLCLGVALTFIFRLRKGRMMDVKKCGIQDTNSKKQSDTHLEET

[5] = target: mouse PD-L1 on 293F cells (W315-293F.mPro1.C1) (mouse) (UniProt Q9EP73); test: FACS affinity on mouse PD-L1 cells, quantitative beads
[6] = target: mouse PD-L1 on 293F cells (W315-293F.mPro1.C1) (mouse) (UniProt Q9EP73); test: FACS on mouse PD-L1 293F cells
[7] = target: human PD-L1 on CHO-K1 cells (W315-CHO-K1.hPro1.C11) (human) (UniProt Q9NZQ7); test: FACS competition: antibody titrated against 5 ug/mL human PD-1 ECD mFc on human PD-L1 CHO-K1 cells
[8] = target: human PD-L1 on CHO-K1 cells (W315-CHO-K1.hPro1.C11) (human) (UniProt Q9NZQ7); test: FACS on human PD-L1 CHO-K1 cells
FGFR.his [9] = test: non-specific binding ELISA; secondary antibody alone on coated antigen
[10] = target: 4-1BB.his (Homo sapiens (Human)) (UniProt Q07011); test: as above
Chain of 4-1BB.his (Homo sapiens (Human)) (Q07011 24-186 limits assumed): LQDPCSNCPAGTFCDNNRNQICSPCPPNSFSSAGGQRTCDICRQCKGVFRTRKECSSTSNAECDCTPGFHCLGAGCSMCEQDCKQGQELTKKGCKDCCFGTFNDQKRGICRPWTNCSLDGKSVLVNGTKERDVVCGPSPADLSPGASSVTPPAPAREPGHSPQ

CTLA4.his [11] = test: as above
Chain of CTLA4.his (P16410 36-161): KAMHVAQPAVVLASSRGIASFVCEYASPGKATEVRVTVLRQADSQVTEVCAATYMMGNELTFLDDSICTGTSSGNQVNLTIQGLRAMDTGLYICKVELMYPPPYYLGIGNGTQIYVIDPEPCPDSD

[12] = target: PD-1.his (Homo sapiens (Human)) (UniProt Q15116); test: as above
Chain of PD-1.his (Homo sapiens (Human)) (Q15116 25-170 limits assumed): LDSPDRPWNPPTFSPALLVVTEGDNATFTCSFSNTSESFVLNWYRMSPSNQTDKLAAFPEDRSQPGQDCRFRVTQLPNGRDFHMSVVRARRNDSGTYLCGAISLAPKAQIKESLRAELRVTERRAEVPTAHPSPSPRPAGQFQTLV

[13] = target: human serum Albumin (human) (UniProt P02768); test: as above
CD3.his [14] = test: as above
[15] = target: HER3.his (Homo sapiens (Human)) (UniProt P21860); test: as above
Factor VIII [16] = test: as above
CD147.his [17] = test: as above
VEGF.his [18] = test: as above
OX40.his [19] = test: as above
Chain of OX40.his (P43489 29-214): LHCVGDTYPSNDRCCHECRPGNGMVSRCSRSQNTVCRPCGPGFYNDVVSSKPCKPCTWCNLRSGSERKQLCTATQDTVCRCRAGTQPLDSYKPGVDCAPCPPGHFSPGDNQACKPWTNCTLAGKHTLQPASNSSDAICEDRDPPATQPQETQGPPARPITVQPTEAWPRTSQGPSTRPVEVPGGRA

CD40 [20] = test: as above
Chain of CD40 (P25942 21-193): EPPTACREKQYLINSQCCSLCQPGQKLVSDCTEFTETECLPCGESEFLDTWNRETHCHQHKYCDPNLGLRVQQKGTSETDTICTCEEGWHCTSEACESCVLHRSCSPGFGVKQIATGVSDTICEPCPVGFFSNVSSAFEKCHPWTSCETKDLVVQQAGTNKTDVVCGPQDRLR

CD22.his [21] = test: as above
FGFR.his [22] = test: non-specific binding ELISA; antigen coated at 2 ug/mL, antibody at 10 ug/ml
[23] = target: 4-1BB.his (Homo sapiens (Human)) (UniProt Q07011); test: as above
CTLA4.his [24] = test: as above
[25] = target: PD-1.his (Homo sapiens (Human)) (UniProt Q15116); test: as above
[26] = target: human serum Albumin (human) (UniProt P02768); test: as above
CD3.his [27] = test: as above
[28] = target: HER3.his (Homo sapiens (Human)) (UniProt P21860); test: as above
Factor VIII [29] = test: as above
CD147.his [30] = test: as above
VEGF.his [31] = test: as above
OX40.his [32] = test: as above
CD40 [33] = test: as above
CD22.his [34] = test: as above

Chain of cynomolgus monkey PD-L1 on 293F cells (W315-293F.cynoPro1.2A2) (cynomolgus monkey) (G7PSE7 entry or part of it): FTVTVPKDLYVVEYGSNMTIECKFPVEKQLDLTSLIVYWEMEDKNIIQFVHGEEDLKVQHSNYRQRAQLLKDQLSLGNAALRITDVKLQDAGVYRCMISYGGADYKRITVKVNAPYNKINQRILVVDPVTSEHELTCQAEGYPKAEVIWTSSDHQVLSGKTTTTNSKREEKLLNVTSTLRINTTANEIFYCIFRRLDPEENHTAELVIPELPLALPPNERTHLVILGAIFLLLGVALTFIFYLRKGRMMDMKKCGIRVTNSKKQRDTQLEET

Row | Bmax [1] | Kd [1] | EC50 [2] | Absorbance at 450 nm (FGFR.his [22]) | Absorbance at 450 nm [23] | Absorbance at 450 nm (CTLA4.his [24]) | Absorbance at 450 nm [25] | Absorbance at 450 nm [26] | Absorbance at 450 nm (CD3.his [27]) | Absorbance at 450 nm [28] | Absorbance at 450 nm (Factor VIII [29]) | Absorbance at 450 nm (CD147.his [30]) | Absorbance at 450 nm (VEGF.his [31]) | Absorbance at 450 nm (OX40.his [32]) | Absorbance at 450 nm (CD40 [33]) | Absorbance at 450 nm (CD22.his [34]) | Substance | further results
1 | 1.6e-08 | 21 nM | 2.65 nM |  |  |  |  |  |  |  |  |  |  |  |  |  | BMK6.hIgG4 (Benchmark antibody 6, variable region of Imfinzi conjugated with human IgG4 constant region) | 
2 | 8.8e-09 | 16 nM | 2.19 nM |  |  |  |  |  |  |  |  |  |  |  |  |  | BMK8.hIgG4 (Benchmark antibody 8, variable region of Tecentriq conjugated with human IgG4 constant region) | IC50 [3]: 1.45 nM; Bmax [4]: 3.3e-10; Kd [4]: 0.53 nM; Bmax [5]: 8.3e-10; Kd [5]: 1.7 nM; EC50 [6]: 1.48 nM
3 |  |  | 2.33 nM |  |  |  |  |  |  |  |  |  |  |  |  |  | BMK9.Fc(IgG1) (Benchmark antibody 9, same sequence with KN035) (Fc fusion) | IC50 [7]: 0.798 nM; EC50 [8]: 0.456 nM
4 |  |  |  |  |  |  |  |  |  |  |  |  |  |  |  |  | Goat anti-human IgG Fc-HRP (Bethyl, A80-304P) (antibody) | Absorbance at 450 nm (FGFR.his [9]): 0.13; Absorbance at 450 nm [10]: 0.05; Absorbance at 450 nm (CTLA4.his [11]): 0.05; Absorbance at 450 nm [12]: 0.05; Absorbance at 450 nm [13]: 0.37; Absorbance at 450 nm (CD3.his [14]): 0.05; Absorbance at 450 nm [15]: 0.05; Absorbance at 450 nm (Factor VIII [16]): 0.06; Absorbance at 450 nm (CD147.his [17]): 0.05; Absorbance at 450 nm (VEGF.his [18]): 0.06; Absorbance at 450 nm (OX40.his [19]): 0.05; Absorbance at 450 nm (CD40 [20]): 0.24; Absorbance at 450 nm (CD22.his [21]): 0.05
5 |  |  |  | 0.13 | 0.07 | 0.09 | 3.29 | 0.41 | 0.07 | 0.07 | 0.15 | 0.06 | 0.11 | 0.06 | 0.25 | 0.06 | hIgG4K Isotype control (antibody) | 
6 |  |  |  | 0.13 | 0.06 | 0.06 | 0.05 | 0.41 | 0.07 | 0.06 | 0.07 | 0.06 | 0.08 | 0.06 | 0.24 | 0.06 | hIgG4L Isotype control (antibody) | 

— patent US20220403031A1
